Data: US20240108766A1 (Bayer, published 2024)
Changes are numbered by the printed parent chain.

T1: human LRRC15 extracellular domain with C-terminal His tag (human, UniProt Q8TF66 22-538)
T1 construct: Recombinant, made in HEK293; the entry holds the extracellular domain and the His tag; SPR analyte; also called TPP-1545; hLRRC15 CT-His
T1 sequence: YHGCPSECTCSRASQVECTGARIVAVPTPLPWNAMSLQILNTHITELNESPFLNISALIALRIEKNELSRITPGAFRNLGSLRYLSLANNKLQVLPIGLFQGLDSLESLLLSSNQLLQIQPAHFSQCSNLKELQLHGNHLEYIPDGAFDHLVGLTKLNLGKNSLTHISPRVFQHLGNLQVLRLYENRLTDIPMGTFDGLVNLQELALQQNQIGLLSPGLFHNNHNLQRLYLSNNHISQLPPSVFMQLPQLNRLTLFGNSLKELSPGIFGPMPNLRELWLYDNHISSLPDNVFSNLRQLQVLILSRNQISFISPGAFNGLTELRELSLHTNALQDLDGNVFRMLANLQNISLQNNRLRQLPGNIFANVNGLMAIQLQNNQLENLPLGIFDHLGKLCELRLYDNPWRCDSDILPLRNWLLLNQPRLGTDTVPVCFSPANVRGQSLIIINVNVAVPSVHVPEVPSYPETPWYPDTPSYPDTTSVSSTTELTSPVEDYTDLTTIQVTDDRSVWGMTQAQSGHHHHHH

T2: cynomolgus (Macaca fascicularis) LRRC15 extracellular domain with C-terminal His tag (cynomolgus monkey (Macaca fascicularis), UniProt Q8TF66 22-538 (human entry))
T2 construct: Recombinant, made in HEK293; the entry holds the extracellular domain and the His tag; SPR analyte; also called TPP-9046
T2 chain: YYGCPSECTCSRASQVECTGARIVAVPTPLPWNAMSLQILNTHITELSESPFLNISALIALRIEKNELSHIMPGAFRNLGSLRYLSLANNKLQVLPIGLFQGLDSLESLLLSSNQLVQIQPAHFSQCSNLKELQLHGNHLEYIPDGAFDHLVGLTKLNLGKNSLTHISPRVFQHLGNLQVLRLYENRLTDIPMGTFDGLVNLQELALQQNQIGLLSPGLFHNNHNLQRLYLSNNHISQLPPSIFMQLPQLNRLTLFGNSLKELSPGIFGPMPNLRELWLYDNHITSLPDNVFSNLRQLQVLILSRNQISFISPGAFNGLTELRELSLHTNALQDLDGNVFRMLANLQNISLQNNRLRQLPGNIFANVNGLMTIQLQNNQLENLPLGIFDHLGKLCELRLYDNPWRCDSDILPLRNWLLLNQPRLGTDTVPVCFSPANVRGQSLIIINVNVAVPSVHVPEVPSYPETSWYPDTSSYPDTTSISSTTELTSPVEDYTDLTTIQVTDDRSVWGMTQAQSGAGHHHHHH

B1: TPP-17405 (antibody, human IgG1, kappa, V domains shown)
VH: EVQLVQSGAEVKKPGASVKVSCKASGYKFSSYWIEWVKQAPGQGLEWIGEILPGSDTTNYNEKFKDRATFTSDTSINTAYMELSRLRSDDTAVYYCARDRGNYRAWFQYWGQGTLVTVSS
VL: DIQMTQSPSSLSASVGDRVTITCRASQRISSYLNWYQQKPGGAPKFLIYYASSLQSGVPSRFSGSGSGTDYTLTISSLQPEDFATYYCDQGLELPWTFGGGTKVEIKR
notes: also called 438H-M345-F05-hIgG1Kappa
B2: TPP-17418 (antibody, human IgG1, kappa, V domains shown)
VH: B1 VH with T57W
VL: B1 VL with R28S, D89Q, L92F, E93S
notes: also called 438H-M308-H05_B-hIgG1Kappa
B3: TPP-17419 (antibody, human IgG1, kappa, V domains shown)
VH: B1 VH with T57W
VL: B1 VL with A25I, R28S, D89Q, E93R
notes: also called 438H-M307-H07-hIgG1Kappa
B4: TPP-1633 (antibody, human IgG1, kappa, V domains shown)
VH: EVQLLESGGGLVQPGGSLRLSCAASGFTFSGYMMQWVRQAPGKGLEWVSGIYPSGGYTNYADSVKGRFTISRDNSKNTLYLQMNSLRAEDTATYYCAREKASDLSGSYSEALDYWGQGTLVTVSS
VL: DIQMTQSPDSLSASVGDRVTITCRASQDVGSWLAWYQQKPGKAPKLLIFAASSLESGIPSRFSGSGSGTDFTLTISSLQPEDFATYYCQQANGFPLTFGGGTKVEIKR
notes: also called 060E-M016-G14-hIgG1
B5: TPP-17073 (antibody, human IgG1, kappa, V domains shown)
VH: B4 VH with Q35S, G55A, N59L, T93V, S102A, S105F
VL: B4 VL with S53Y
notes: also called 438H-M113-N15-hIgG1
B6: TPP-14392 (antibody, human IgG1, kappa, V domains shown)
VH: B4 VH with Q35S, G55P, N59Y, T93V
VL: B4 VL with S53Y
notes: also called 13612-rec05-hIgG1Kappa
B7: TPP-17074 (antibody, human IgG1, kappa, V domains shown)
VH: B4 VH with Q35S, T58A, N59L, T93V, S102A, S105F
VL: B4 VL with S53Y
notes: also called 438H-M161-K22-hIgG1

The binders below were run against T1, human LRRC15 extracellular domain with … (assay: SPR (Example 6), overview table, repeats Table 9; head prints [M^-1]).
Procedure: (§1) To assess the binding kinetics and affinity of anti-LRRC15 antibodies as well as their species cross-reactivity profile, binding assays were conducted using surface plasmon resonance (SPR). Binding assays were performed on a Biacore T200 instrument at 25° C. using assay buffer HBS EP+, 1 mg/ml BSA, 300 mM NaCl, 0.05% NaN3. Antibodies were captured via anti-human Fc IgGs covalently amine coupled to a CM5 sensor chip and human, mouse and cynomolgus LRRC15 were used as analytes in a concentration series from 1.56-200 nM in multi cycle kinetics mode. […] Obtained sensorgrams were fitted to a 1:1 Langmuir binding model to derive kinetic data.

| Kd [nM] | Binder |
| --- | --- |
| 0.86 | B1 |
| 1.1 | B2 |
| 3.4 | B3 |
| 150 | B4 |
| 0.21 | B5 |
| 5.9 | B6 |
| 0.19 | B7 |

Target: T2, cynomolgus (Macaca fascicularis) LRRC15 …
Experiment: as above
Procedure: as §1

| Kd [nM] | Binder |
| --- | --- |
| 0.78 | B1 |
| 0.99 | B2 |
| 2.5 | B3 |
| 190 | B4 |
| 0.18 | B5 |
| 10 | B6 |

The binders below were run against T1, human LRRC15 extracellular domain with … (assay: SPR Biacore T200, antibody captured, LRRC15 analyte, 25°C).
Procedure: (§2) To assess if anti-LRRC-15 antibodies show a difference in binding at different temperatures, binding assays were conducted using surface plasmon resonance (SPR). Binding assays were performed on a Biacore T200 instrument at temperatures of 10° C., 20° C., 25° C. and 37° C. with assay buffer HBS EP+, 1 mg/ml BSA (bovine serum albumine), 300 mM NaCl, 0.05% NaN₃. Antibodies were captured via anti-human Fc IgGs covalently amine coupled to a CM5 sensor chip and human LRRC15 was used as an analyte in a concentration series from 1.56-200 nM in multi cycle kinetics mode. Pre-experiments were conducted to have an equal capture level at each temperature. Obtained sensorgrams were fitted to a 1:1 Langmuir binding model to derive kinetic data.

| Kd [nM] | Binder |
| --- | --- |
| 160 | B4 |
| 6.8 | B6 |
| 0.22 | B7 |

These binders were tested against T1, human LRRC15 extracellular domain with … (assay: SPR Biacore T200, 25°C, antibody captured, LRRC15 analyte).
Procedure: as §1

| Kd [nM] | Binder |
| --- | --- |
| 0.86 | B1 |
| 1.1 | B2 |
| 3.4 | B3 |
| 150 | B4 |
| 0.21 | B5 |
| 5.9 | B6 |
| 0.19 | B7 |

Target: T2, cynomolgus (Macaca fascicularis) LRRC15 …
Experiment: as above
Procedure: as §1

| Kd [nM] | Binder |
| --- | --- |
| 0.78 | B1 |
| 0.99 | B2 |
| 2.5 | B3 |
| 190 | B4 |
| 0.18 | B5 |
| 10 | B6 |

These binders were tested against T1, human LRRC15 extracellular domain with … (assay: calculated from SPR kd, 25°C).
Procedure: as §2

| Complex Half Life [h] | Binder |
| --- | --- |
| 0.00833 | B4 |
| 0.567 | B6 |
| 1.6 | B7 |

The binders below were run against T1, human LRRC15 extracellular domain with … (assay: SPR Biacore T200, antibody captured, LRRC15 analyte, 37°C).
Procedure: as §2

| Kd [nM] | Binder |
| --- | --- |
| 91 | B6 |
| 1.9 | B7 |

The binders below were run against T1, human LRRC15 extracellular domain with … (assay: SPR at 10-37°C (Example 3)).
Procedure: as §2

| Temperature dependent loss in binding affinity [fold] | Binder |
| --- | --- |
| > 9 | B4 |
| 56.9 | B6 |
| 33.3 | B7 |

The binders below were run against T1, human LRRC15 extracellular domain with … (assay: SPR thermodynamics (van't Hoff/Eyring), 10-37°C).
Procedure: as §2, with “Thermodynamics help to explain why an interaction is happening and what the driving forces for the interaction are. To” for “To”, “the thermodynamic parameters for anti-LRRC15” for “if anti-LRRC-15”, “antibodies” for “antibodies show a difference in binding at different temperatures,”, “BSA,” for “BSA (bovine serum albumine),”, “NaN3.” for “NaN₃.”, “data. Thermodynamic parameters were obtained using the integrated thermodynamics wizard in the Biacore T200 software. Van′t Hoff and Eyring plots were calculated and plotted and thermodynamic parameters were derived.” for “data.”

| -TΔS [kcal/mol] | ΔG^0 [kcal/mol] | ΔH^0 [kcal/mol] | Binder |
| --- | --- | --- | --- |
| 15.3 | -11 | -26.3 | B6 |
| 9.56 | -12.9 | -22.7 | B7 |

Each binder was assayed against T1, human LRRC15 extracellular domain with … (assay: SPR Biacore T200, antibody captured, LRRC15 analyte, 10°C).
Procedure: as §2

| Kd [nM] | Binder |
| --- | --- |
| 18 | B4 |
| 0.057 | B7 |

These binders were tested against T1, human LRRC15 extracellular domain with … (assay: calculated from SPR kd, 37°C).
Procedure: as §2

| Complex Half Life [min] | Binder |
| --- | --- |
| 2.3 | B6 |

These binders were tested against T1, human LRRC15 extracellular domain with … (assay: calculated from SPR kd, 20°C).
Procedure: as §2

| Complex Half Life [h] | Binder |
| --- | --- |
| 1.48 | B6 |
| 3.16 | B7 |

Each binder was assayed against T1, human LRRC15 extracellular domain with … (assay: binding of the purified IgG, method not given).

| Kd [nM] | Binder |
| --- | --- |
| ~200 | B4 |

These binders were tested against T1, human LRRC15 extracellular domain with … (assay: SPR Biacore T200, antibody captured, LRRC15 analyte, 20°C).
Procedure: as §2

| Kd [nM] | Binder |
| --- | --- |
| 80 | B4 |
| 2.9 | B6 |
| 0.14 | B7 |

Each binder was assayed against T1, human LRRC15 extracellular domain with … (assay: calculated from SPR kd, 10°C).
Procedure: as §2

| Complex Half Life [h] | Binder |
| --- | --- |
| 0.138 | B4 |
| 3.21 | B6 |
| 10.7 | B7 |
